Experimental data taken from patent US20070060518A1 (MANNKIND, published 2007).
Read-outs that look alike come from different tables or passages of the source. Each block holds one binder with its values, some of them ahead of it. Numbered stars: 1 amine (or outer) side, 2 acyl side, 3 side chain; on linkers, the order of the positions; unused ones are H or OH. Square brackets hold non-standard residues; d marks the D form. Ends that are not written are not given here. O‑methyltyrosine = COc1ccc(C[C@H](N[*:1])C(=O)[*:2])cc1; Phe(4-F) = N[C@@H](Cc1ccc(F)cc1)C(=O)O; Phg = N[C@H](C(=O)O)c1ccccc1; Nle = CCCC[C@H](N)C(=O)O; Nva = CCC[C@H](N)C(=O)O

What was measured:
[1] = biological target: T1, HLA-A*0201 class I monomer on avidin-coated plates (iTopia Epitope Discovery System) (human); experiment: iTopia affinity assay (FIG. 26)
T1 construct: Bought kit (Beckman Coulter); also called A0201 restricted MHC Class 1 molecules; MHC monomer
Excerpt: (§1) Avidin-coated microtiter plates containing class I monomer loaded with a so-called placeholder peptide were used to evaluate peptide binding, affinity and off-rate. […] Assay buffers, anti-MHC-FITC mAb and beta2-microglobulin and control peptides were also supplied with the kits. Binding Assay:
(§2) In some cases, the reported values are the average of two determinations.

[2] = biological target: T1, HLA-A*0201 class I monomer on …; experiment: iTopia binding assay (FIG. 26)
Excerpt: as §1
(§3) This assay measures the ability of individual peptides to bind HLA molecules under standardized optimal binding conditions. Monomer-coated plates were first stripped, releasing the placeholder peptide and leaving only the MHC heavy chain bound to the plate. Test peptides were then introduced under optimal folding conditions, along with the anti-MHC-FITC mAb. […] The anti-MHC-FITC mAb binds preferentially to a refolded MHC complex. Therefore, the fluorescence intensity resulting from each peptide was related to the peptide's ability to form complex with MHC molecule. Each peptide's binding was evaluated relative to the positive control peptide provided in the kit, and the results were expressed “% binding”.

[3] = biological target: T1, HLA-A*0201 class I monomer on …; experiment: iTopia binding and affinity assays (FIG. 26)
Excerpt: as §1, §3

[4] = biological target: T1, HLA-A*0201 class I monomer on …; experiment: iTopia off-rate assay (FIG. 20)
Description: as §1
(§4) The plates were then incubated on the allele-specific monomer plates at 37° C. The plates were measured at multiple time points (0, 0.5, 1, 1.5, 2, 4, 6 and 8 hrs) for relative fluorescence intensity. The time required for 50% of the peptide to dissociate from the MHC monomer is defined as the T1/2 value (hrs).

[5] = biological target: T1, HLA-A*0201 class I monomer on …; experiment: iTopia off-rate assay (FIG. 21)
Description: as §1, §4

HLA-A*0201 on T2 cells [6] = biological target: T2, HLA-A*0201 on T2 cells (human); experiment: T2 cell stability assay, flow cytometry
T2 construct: whole, on cells; also called HLA-A2

[7] = biological target: T1, HLA-A*0201 class I monomer on …; experiment: iTopia off-rate assay
Description: as §4

HLA-A*0201 on T2 cells [8] = biological target: T2, HLA-A*0201 on T2 cells; experiment: T2 cell binding assay, flow cytometry
[9] = biological target: T1, HLA-A*0201 class I monomer on …; experiment: iTopia affinity and off-rate assays (FIG. 19)
Description: as §1, §4

[10] = biological target: T1, HLA-A*0201 class I monomer on …; experiment: iTopia assays (FIG. 20)
[11] = biological target: T1, HLA-A*0201 class I monomer on …; experiment: iTopia affinity and off-rate assays (FIG. 28)
Description: as §1, §4, §2

HLA-A*0201 on T2 cells [12] = biological target: T2, HLA-A*0201 on T2 cells; experiment: T2 cell binding assay, flow cytometry; remark: listed apart in the source
HLA-A*0201 on T2 cells [13] = biological target: T2, HLA-A*0201 on T2 cells; experiment: T2 cell stability assay, flow cytometry; remark: listed apart in the source
HLA-A*0201 on T2 cells [14] = biological target: T2, HLA-A*0201 on T2 cells; experiment: T2 cell binding assay, flow cytometry; remark: listed apart in the source
[15] = biological target: T1, HLA-A*0201 class I monomer on …; experiment: iTopia assays (FIG. 21)

fold change of ED50 against the native peptide [1]: > 10 fold
Binder: SLLQHLIGA [PRAME425-433 analog with Ala at PΩ]

binding result [2]: binds
Binder: SVLQHLIGL [PRAME425-433 analog with Val at P2]

binding result [3]: binds
Binder: YLLQHLIGL [PRAME425-433 analog with Tyr at P1]

fold change of ED50 against the native peptide [1]: ~6 fold
Binder: KLLQHLIGL (also called Lys P1 analog) [PRAME425-433 analog with Lys at P1]

binding result [3]: binds
Binder: TLLQHLIGL [PRAME425-433 analog with Thr at P1]

binding result [3]: binds
Binder: SMLQHLIGL [PRAME425-433 analog with Met at P2]

binding result [3]: binds
Binder: SILQHLIGL [PRAME425-433 analog with Ile at P2]

binding result [2]: binds
Binder: SLLQHLIGV [PRAME425-433 analog with Val at PΩ]

binding result [2]: binds
Binder: SLLQHLIGI [PRAME425-433 analog with Ile at PΩ]

binding result [4]: binds
Binder: GXPSIPVHPV (norleucine (Nle) at P2) [PSMA288-297 analog with Nle at P2 and Val at PΩ]

binding result [5]: binds
Binder: A[Nva]WSIPVHPI [PSMA288-297 analog with Ala at P1, Nva at P2 and Trp at P3]

Stability (T1/2) (HLA-A*0201 on T2 cells [6]): > 24 h
Binder: [Phe(4-F)]ASEKIFYV [SSX2 41-49 (K41(Phe-4F))]

Half-Life (T1/2) [7]: 17 h
Binder: S[Nva]LMWITQV (also called SNvaLMWITQV) [NY-ESO-1 157-165 (L158Nva, C165V)]

EC50 (HLA-A*0201 on T2 cells [8]): 19.5 µM | Relative affinity (1/RA) (HLA-A*0201 on T2 cells [8]): 0.8 | Stability (T1/2) (HLA-A*0201 on T2 cells [6]): 20 h
Binder: [O‑methyltyrosine]ASEKIFYV [SSX2 41-49 (K41(O-methyl Tyr))]

binding result [5]: binds
Binder: ALWSIPVHPV [PSMA288-297 analog with Ala at P1, Trp at P3 and Val at PΩ]

binding result [9]: binds
Binder: GMPSIPVHPI [PSMA288-297 analog with Met at P2]

binding result [5]: binds
Binder: AVPSIPVHPV [PSMA288-297 analog with Ala at P1, Val at P2 and Val at PΩ]

binding result [10]: binds
Binder: GLWSIPVHPV [PSMA288-297 analog with Trp at P3 and Val at PΩ]

Half-Life (T1/2) [7]: 14.4 h
Binder: YMDGTMSQV [Tyrosinase 369-377]

binding result [9]: binds
Binder: GLPSIPVHPX (norvaline (Nva) at PΩ (P10), also called I297Nva) [PSMA288-297 analog with Nva at PΩ]

binding result [5]: binds
Binder: AVPSIPVHP[Nva] [PSMA288-297 analog with Ala at P1, Val at P2 and Nva at PΩ]

binding result [5]: binds
Binder: ALWSIPVHP[Nva] [PSMA288-297 analog with Ala at P1, Trp at P3 and Nva at PΩ]

binding result [10]: binds
Binder: GLWSIPVHP[Nva] [PSMA288-297 analog with Trp at P3 and Nva at PΩ]

B1: Prame 425-433 (L426Nva, L433Nle) (peptide)
peptide: S[Nva]LQHLIG[Nle]
notes: also called S{Nva}LQHLIG{Nle}; L426Nva L433Nle analog
Half-Life (T1/2) [7]: 16.9 h

binding result [11]: binds
Binder: T[Nva]LQHLIG[Nle] (also called T{Nva}LQHLIG{Nle}) [PRAME425-433 S425T L426Nva L433Nle analog]

Half-Life (T1/2) [7]: 14.7 h
Binder: YMDGTMSQX (norvaline (Nva) at position 377 (P9)) [Tyrosinase 369-377 (V377Nva)]

binding result [4]: binds
Binder: XLPSIPVHPX (aminobutyric acid (Abu) at P1; norvaline (Nva) at PΩ (P10)) [PSMA288-297 analog with Abu at P1 and Nva at PΩ]

EC50 (HLA-A*0201 on T2 cells [12]): 8.8 µM | Relative affinity (1/RA) (HLA-A*0201 on T2 cells [12]): 1.7 | Stability (T1/2) (HLA-A*0201 on T2 cells [13]): 22.5 h
Binder: KISEKIFYV [SSX2 41-49 (A42I)]

Relative affinity (1/RA) (HLA-A*0201 on T2 cells [14]): 1.1
Binder: KVSEKIFYI [SSX2 41-49 (A42V, V49I)]

Relative affinity (1/RA) (HLA-A*0201 on T2 cells [14]): 1
Binder: KASEKIFYI [SSX2 41-49 (V49I)]

EC50 (HLA-A*0201 on T2 cells [12]): 8.8 µM | Relative affinity (1/RA) (HLA-A*0201 on T2 cells [12]): 1.7 | Stability (T1/2) (HLA-A*0201 on T2 cells [13]): 22.5 h
Binder: KMSEKIFYV [SSX2 41-49 (A42M)]

EC50 (HLA-A*0201 on T2 cells [8]): 9.55 µM | Relative affinity (1/RA) (HLA-A*0201 on T2 cells [8]): 1.5 | Stability (T1/2) (HLA-A*0201 on T2 cells [6]): > 24 h
Binder: FASEKIFYV [SSX2 41-49 (K41F)]

Relative affinity (1/RA) (HLA-A*0201 on T2 cells [14]): 2.6
Binder: KLSEKIFYI [SSX2 41-49 (A42L, V49I)]

EC50 (HLA-A*0201 on T2 cells [8]): 8.74 µM | Relative affinity (1/RA) (HLA-A*0201 on T2 cells [8]): 1.7 | Stability (T1/2) (HLA-A*0201 on T2 cells [6]): > 24 h
Binder: YASEKIFYV [SSX2 41-49 (K41Y)]

binding result [15]: binds
Binder: G[Nva]WSIPVHPV [PSMA288-297 Nva/W/V analog (Nva at P2, Trp at P3, Val at PΩ)]

binding result [5]: binds
Binder: A[Nva]PSIPVHPV [PSMA288-297 analog with Ala at P1, Nva at P2 and Val at PΩ]

EC50 (HLA-A*0201 on T2 cells [8]): 5.83 µM | Relative affinity (1/RA) (HLA-A*0201 on T2 cells [8]): 2.5 | Stability (T1/2) (HLA-A*0201 on T2 cells [6]): > 24 h
Binder: [Phg]ASEKIFYV [SSX2 41-49 (K41(Phg))]

binding result [5]: binds
Binder: A[Nle]WSIPVHPI [PSMA288-297 analog with Ala at P1, Nle at P2 and Trp at P3]
